IntAct's records for PubMed 18923418

B1: Ras GTPase-activating-like protein IQG1 (Candida albicans (strain SC5314 / ATCC MYA-2876)), Q5AH02 (parent)
chain: MAIGNIAARYLSSLEETDTTATTTTTTTSNVLQPSNRLNSPTKFNRKSLDNNSQDLDALARALNITPSKPETPTSISKGSATSLLRTKFESPSATVSSFKSTSSSNGVSPTKKNHFVEITSDETPSWANKNYKDILNKSPTKFNTQSNVHTPLKQLNQPIGTPSSSSLSPAKNASKSSPGYEYLCRIEAIKQWLESVLQEQITQSASQLISYIRNGIHLAKLANVVLPTSKPVFLNDSKLQFKHTENINRFFQLLDFFNMPDLFRFELTDLYDAKNVPKVWFCLHALSYILHKQDPSYPAMNNLVGKVDFSADDIRTANRALVNSPLPNFSSADTGEGKSDTSNNNSSTTSATAAFMDKVTSPVKKTPSPLKRPQQLQKKQLELVEDNKPELTQDSSGLSKISRDDPFTDRVDLAPPSTSNAKLELHTPPSKSLEFKIKSPIIDLSHRDSDYYTPELESHLPNIIKFQSLARGAVFRYLMFVDRILLKSYQDEFTNLFAIIRGNKARRKTVHKHRDELRLYSFEIIELQSIIRKNFVINKKPNFTSITNDVETVELQSLIRGKLTRDWKKYVTNGLEKFTPQIIDFQSLVRMKSIYSKSNKVISYKDEILPSLIELQSIARSQLYHRFSRSNAIDETEIIKIQSIIRRNAVIEDLYTKLSKVRSNKRRLIELQSIARGGVARTKLCNSVLVTLIYEDGILNQLFAKIRGDNYRKKFNSQKSELLKYEKSSIIPVQTLFRGVLSRYTKEVTLSDIFDQIDSVITLQSVARGKLMRGSIYEFSDYYQKHIKQVVKAQAILQRVFAQNAYKQLITSKNPPLKVIRRFAPLLSNNDRDFQDEMTLSDLKDLIIEKCKANEEYENQIEQLDMKLGLLDKNKISIEEFLKPTKGKTFKPIVENVKNLERLNKSLKKKIELWQTLFYFIQTNPIYLTKLFNSIPYTKNQTKSGQDLFQSVIQLFPVRDSSITYHSREEYFLVKLMIQLMQNDTANSNNLGDITKLHLTNWIDFFTNFNNHTFQRQHLKALLGKFVIRIVDNEQVDFESDPIRIYNQIIDHEMKVYGRSEKSRDISPQAAIQLPEVSNKFVGNLMSLRETCSDLLSMLQKNASGNKALLQIPDHVKLICRQGYLCAQRKFPDKSDQQHLAVAGVIFVKHYLGSILQVPENYGILTGNNDTQKAKSKDNLRYLYRVMLQLFSMKPFNDNFLKPLNEYIMASTDTVKSIISQAIINVGEIETVYELHDYDDLVTHQRPKLTISVNSLIQLEKSILQNVDIITTGNDDQLYKTCVEVEKLLISPQDMLTLTDLSSVTLNLNPTTQEESIVDSKTKTLFTQAKRCLLYIIRVQEEDDSDDLLELLISGIKPSHEQRFKEIVQYEKAEQDISLNNSKSVTANTVNKKKSTRPYSGTSLGDLSNLTYHELKKMCLEIILKLESMGELTRKNSFQTLLNQIAMDIKTKDSQRQCRWQQLQVSQKTIKKLSEKENYLKTQLHNYKKHVESVLLELQSKSKSNDKNWKRRLFNIMVIPVFSKQYFYHRELRKHNRLPKFGSYKYSAKKLIDQKVLIDFSTANNVATASKLDFMFSCHQVGKFTIEVASGTVNIPGATNTITLDELLALQYENKTKFELFDGMATFDSNNFMGLIFRKFYDLKKE
partner: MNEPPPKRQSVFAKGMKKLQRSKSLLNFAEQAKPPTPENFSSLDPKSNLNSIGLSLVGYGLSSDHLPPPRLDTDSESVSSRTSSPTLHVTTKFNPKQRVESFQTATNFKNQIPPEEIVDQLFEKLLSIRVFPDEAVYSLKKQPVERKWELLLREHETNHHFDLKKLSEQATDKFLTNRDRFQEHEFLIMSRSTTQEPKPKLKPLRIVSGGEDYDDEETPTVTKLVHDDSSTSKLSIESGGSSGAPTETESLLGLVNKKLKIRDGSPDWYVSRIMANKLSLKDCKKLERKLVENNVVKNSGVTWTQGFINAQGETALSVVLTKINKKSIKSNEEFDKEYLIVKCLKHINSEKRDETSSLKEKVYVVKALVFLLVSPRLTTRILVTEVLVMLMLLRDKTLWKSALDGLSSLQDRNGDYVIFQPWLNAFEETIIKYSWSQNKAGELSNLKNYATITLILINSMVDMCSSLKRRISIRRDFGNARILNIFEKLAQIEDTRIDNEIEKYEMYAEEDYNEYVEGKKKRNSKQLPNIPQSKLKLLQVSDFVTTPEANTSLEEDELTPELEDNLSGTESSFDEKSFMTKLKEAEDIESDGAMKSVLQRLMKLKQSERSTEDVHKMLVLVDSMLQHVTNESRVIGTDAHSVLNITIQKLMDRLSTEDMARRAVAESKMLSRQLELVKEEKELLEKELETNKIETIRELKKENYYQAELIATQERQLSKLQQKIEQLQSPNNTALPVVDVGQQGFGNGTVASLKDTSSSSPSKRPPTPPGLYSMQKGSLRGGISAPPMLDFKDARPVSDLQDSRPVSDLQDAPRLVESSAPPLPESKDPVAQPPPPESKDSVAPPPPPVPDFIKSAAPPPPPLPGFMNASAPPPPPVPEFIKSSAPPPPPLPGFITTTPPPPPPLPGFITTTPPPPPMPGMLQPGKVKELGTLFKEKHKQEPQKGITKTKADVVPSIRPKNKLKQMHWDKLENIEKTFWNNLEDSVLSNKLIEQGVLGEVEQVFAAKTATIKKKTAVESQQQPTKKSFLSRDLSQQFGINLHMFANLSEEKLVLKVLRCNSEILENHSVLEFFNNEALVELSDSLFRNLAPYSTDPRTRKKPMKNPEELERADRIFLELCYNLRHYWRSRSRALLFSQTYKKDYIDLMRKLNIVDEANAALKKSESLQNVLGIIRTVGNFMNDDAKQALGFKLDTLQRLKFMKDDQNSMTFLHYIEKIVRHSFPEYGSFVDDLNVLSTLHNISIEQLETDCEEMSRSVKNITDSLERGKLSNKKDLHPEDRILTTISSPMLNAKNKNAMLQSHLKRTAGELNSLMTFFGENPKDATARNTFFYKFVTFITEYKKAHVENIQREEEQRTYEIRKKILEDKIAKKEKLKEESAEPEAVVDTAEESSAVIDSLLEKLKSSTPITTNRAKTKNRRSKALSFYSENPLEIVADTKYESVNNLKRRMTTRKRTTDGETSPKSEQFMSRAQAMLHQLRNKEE
B2: Ras GTPase-activating-like protein IQG1 (Candida albicans (strain SC5314 / ATCC MYA-2876)), Q5AH02 (parent)
chain: B1 chain

Variants of: B1
Conditions: with bnr1_canal BNR1, Q5AAF4

| Variant | effect of a mutation on the interaction |
| --- | --- |
| E15A | disrupting interaction |

Variants of: B2
Conditions: with bni1_canal BNI1, Q5AL52
Chain of bni1_canal BNI1, Q5AL52 (Q5AL52 whole entry): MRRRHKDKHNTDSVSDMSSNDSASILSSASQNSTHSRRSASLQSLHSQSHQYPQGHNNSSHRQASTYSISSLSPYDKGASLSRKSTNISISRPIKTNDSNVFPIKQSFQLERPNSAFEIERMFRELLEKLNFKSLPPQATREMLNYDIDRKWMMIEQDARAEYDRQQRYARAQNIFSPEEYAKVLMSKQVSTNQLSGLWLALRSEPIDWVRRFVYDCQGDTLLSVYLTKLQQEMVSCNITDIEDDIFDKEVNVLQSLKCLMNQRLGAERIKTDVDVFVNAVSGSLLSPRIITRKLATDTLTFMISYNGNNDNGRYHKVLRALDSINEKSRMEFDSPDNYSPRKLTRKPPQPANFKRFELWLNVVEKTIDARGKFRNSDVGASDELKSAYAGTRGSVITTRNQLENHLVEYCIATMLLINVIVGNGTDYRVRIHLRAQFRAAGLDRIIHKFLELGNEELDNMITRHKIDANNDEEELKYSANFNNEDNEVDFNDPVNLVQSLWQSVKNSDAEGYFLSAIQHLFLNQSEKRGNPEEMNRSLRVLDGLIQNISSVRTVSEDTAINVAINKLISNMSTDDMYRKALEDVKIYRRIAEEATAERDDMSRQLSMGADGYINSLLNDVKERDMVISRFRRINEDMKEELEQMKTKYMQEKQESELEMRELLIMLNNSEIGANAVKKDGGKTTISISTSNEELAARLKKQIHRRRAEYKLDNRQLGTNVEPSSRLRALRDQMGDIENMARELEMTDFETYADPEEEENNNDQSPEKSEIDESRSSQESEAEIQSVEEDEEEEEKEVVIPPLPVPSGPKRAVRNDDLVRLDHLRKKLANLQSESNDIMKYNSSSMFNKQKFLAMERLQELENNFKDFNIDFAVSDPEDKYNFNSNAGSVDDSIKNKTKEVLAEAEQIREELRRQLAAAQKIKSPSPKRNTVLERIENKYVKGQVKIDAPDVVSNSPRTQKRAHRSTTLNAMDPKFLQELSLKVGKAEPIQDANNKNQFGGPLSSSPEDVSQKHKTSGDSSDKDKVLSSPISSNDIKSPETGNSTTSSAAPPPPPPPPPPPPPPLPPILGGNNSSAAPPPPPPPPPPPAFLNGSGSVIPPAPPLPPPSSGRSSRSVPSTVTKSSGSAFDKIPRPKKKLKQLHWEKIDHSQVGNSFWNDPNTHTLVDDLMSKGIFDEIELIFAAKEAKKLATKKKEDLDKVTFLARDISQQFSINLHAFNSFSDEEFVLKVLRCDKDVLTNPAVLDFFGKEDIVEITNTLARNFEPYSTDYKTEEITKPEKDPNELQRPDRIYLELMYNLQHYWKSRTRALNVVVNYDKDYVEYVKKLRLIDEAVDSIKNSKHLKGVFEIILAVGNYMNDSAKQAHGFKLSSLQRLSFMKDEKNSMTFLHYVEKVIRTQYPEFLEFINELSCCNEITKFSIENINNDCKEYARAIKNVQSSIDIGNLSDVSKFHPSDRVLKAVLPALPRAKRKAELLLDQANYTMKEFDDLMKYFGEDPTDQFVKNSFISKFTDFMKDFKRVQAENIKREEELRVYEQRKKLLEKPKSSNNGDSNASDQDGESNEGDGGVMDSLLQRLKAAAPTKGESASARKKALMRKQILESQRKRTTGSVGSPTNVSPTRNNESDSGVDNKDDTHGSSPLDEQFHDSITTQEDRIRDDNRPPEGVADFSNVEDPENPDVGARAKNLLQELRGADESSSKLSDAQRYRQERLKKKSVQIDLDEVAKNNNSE

| Variant | effect of a mutation on the interaction |
| --- | --- |
| E15A | disrupting interaction |
